According to IntAct's records for PubMed 14567693:

B1: Electrogenic sodium bicarbonate cotransporter 1 (Homo sapiens), Q9Y6R1-1 (parent)
chain: MEDEAVLDRGASFLKHVCDEEEVEGHHTIYIGVHVPKSYRRRRRHKRKTGHKEKKEKERISENYSDKSDIENADESSSSILKPLISPAAERIRFILGEEDDSPAPPQLFTELDELLAVDGQEMEWKETARWIKFEEKVEQGGERWSKPHVATLSLHSLFELRTCMEKGSIMLDREASSLPQLVEMIVDHQIETGLLKPELKDKVTYTLLRKHRHQTKKSNLRSLADIGKTVSSASRMFTNPDNGSPAMTHRNLTSSSLNDISDKPEKDQLKNKFMKKLPRDAEASNVLVGEVDFLDTPFIAFVRLQQAVMLGALTEVPVPTRFLFILLGPKGKAKSYHEIGRAIATLMSDEVFHDIAYKAKDRHDLIAGIDEFLDEVIVLPPGEWDPAIRIEPPKSLPSSDKRKNMYSGGENVQMNGDTPHDGGHGGGGHGDCEELQRTGRFCGGLIKDIKRKAPFFASDFYDALNIQALSAILFIYLATVTNAITFGGLLGDATDNMQGVLESFLGTAVSGAIFCLFAGQPLTILSSTGPVLVFERLLFNFSKDNNFDYLEFRLWIGLWSAFLCLILVATDASFLVQYFTRFTEEGFSSLISFIFIYDAFKKMIKLADYYPINSNFKVGYNTLFSCTCVPPDPANISISNDTTLAPEYLPTMSSTDMYHNTTFDWAFLSKKECSKYGGNLVGNNCNFVPDITLMSFILFLGTYTSSMALKKFKTSPYFPTTARKLISDFAIILSILIFCVIDALVGVDTPKLIVPSEFKPTSPNRGWFVPPFGENPWWVCLAAAIPALLVTILIFMDQQITAVIVNRKEHKLKKGAGYHLDLFWVAILMVICSLMALPWYVAATVISIAHIDSLKMETETSAPGEQPKFLGVREQRVTGTLVFILTGLSVFMAPILKFIPMPVLYGVFLYMGVASLNGVQFMDRLKLLLMPLKHQPDFIYLRHVPLRRVHLFTFLQVLCLALLWILKSTVAAIIFPVMILALVAVRKGMDYLFSQHDLSFLDDVIPEKDKKKKEDEKKKKKKKGSLDSDNDDSDCPYSEKVPSIKIPMDIMEQQPFLSDSKPSDRERSPTFLERHTSC
partner: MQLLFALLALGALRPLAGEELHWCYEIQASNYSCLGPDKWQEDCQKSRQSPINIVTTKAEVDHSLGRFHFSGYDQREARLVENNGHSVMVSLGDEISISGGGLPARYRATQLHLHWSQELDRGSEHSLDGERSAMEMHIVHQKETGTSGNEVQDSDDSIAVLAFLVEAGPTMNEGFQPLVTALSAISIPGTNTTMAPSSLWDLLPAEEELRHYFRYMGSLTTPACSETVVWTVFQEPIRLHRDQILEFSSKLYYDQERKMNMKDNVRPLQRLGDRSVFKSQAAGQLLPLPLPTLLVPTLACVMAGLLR

Variants of: B1
Settings: with cah4_rabit CA4, P48283

Question: How did the “effect of a mutation on the interaction” value turn out when G767T was run?
Answer: Its value is “disrupting interaction”.
